The results in this text go back to US20240301031A1 (JIANGSU HENGRUI PHARMACEUTICALS, published 2024).

Where a chain is given by its changes, count along the chain named.

B1: TACI-9-1Fc (Fc fusion)
chain: STSCRKEQGKFYDHLLRDCISCASICGQHPKQCAYFCENKLDKTHTCPPCPAPEAEGAPSVFLFPPKPKDTLMISRTPEVTCVVVDVSHEDPEVKFNWYVDGVEVHNAKTKPREEQYNSTYRVVSVLTVLHQDWLNGKEYKCKVSNKALPSSIEKTISKAKGQPREPQVYTLPPSRDELTKNQVSLTCLVKGFYPSDIAVEWESNGQPENNYKTTPPVLDSDGSFFLYSKLTVDKSRWQQGNVFSCSVMHEALHNHYTQKSLSLSPGK
notes: two identical polypeptides
B2: TACI-9-13Fc (Fc fusion)
chain: B1 chain with F36Y
notes: two identical polypeptides
B3: TACI-9-11Fc (Fc fusion)
chain: B1 chain with T2L, R5S, K6E, K10E
notes: two identical polypeptides
B4: TACI-9-5Fc (Fc fusion)
chain: B1 chain with T2L, K10E
notes: two identical polypeptides
B5: TACI-9-4Fc (Fc fusion)
chain: B1 chain with T2L, K6Q
notes: two identical polypeptides
B6: TACI-9-9Fc (Fc fusion)
chain: B1 chain with T2R, D18T, Y35R
notes: two identical polypeptides
B7: TACI-9-2Fc (Fc fusion)
chain: B1 chain with T2L, R5S
notes: two identical polypeptides
B8: TACI-9-7Fc (Fc fusion)
chain: B1 chain with T2R, D18A
notes: two identical polypeptides
B9: TACI-9-12Fc (Fc fusion)
chain: B1 chain with Y35A
notes: two identical polypeptides
B10: TACI-9-8Fc (Fc fusion)
chain: B1 chain with T2L, Y35A
notes: two identical polypeptides
B11: TACI-9-6Fc (Fc fusion)
chain: B1 chain with T2R, D18T
notes: two identical polypeptides
B12: TACI-9-3Fc (Fc fusion)
chain: B1 chain with T2L, K6E
notes: two identical polypeptides
B13: TACI-3 Fc (Fc fusion)
chain: SGLGRSRKGGKSRVDQEERFPQGLWTGVAMRSCPEEQYWDPLLGTCMSCKTICNHQSQRTCAAFCRSLSCRKEQGKFYDHLLRDCISCASICGQHPKQCAYFCENKLRSPVNLPPELRKQRSGEVEDKTHTCPPCPAPEAEGAPSVFLFPPKPKDTLMISRTPEVTCVVVDVSHEDPEVKFNWYVDGVEVHNAKTKPREEQYNSTYRVVSVLTVLHQDWLNGKEYKCKVSNKALPSSIEKTISKAKGQPREPQVYTLPPSRDELTKNQVSLTCLVKGFYPSDIAVEWESNGQPENNYKTTPPVLDSDGSFFLYSKLTVDKSRWQQGNVFSCSVMHEALHNHYTQKSLSLSPGK
notes: two identical polypeptides
B14: TACI-5 Fc (Fc fusion)
chain: GGRSRVDQEERFPQGLWTGVAMRSCPEEQYWDPLLGTCMSCKTICNHQSQRTCAAFCRSLSCRKEQGKFYDHLLRDCISCASICGQHPKQCAYFCENKLRSPVNLPPELRKQRSGEVENNSDNSGDKTHTCPPCPAPEAEGAPSVFLFPPKPKDTLMISRTPEVTCVVVDVSHEDPEVKFNWYVDGVEVHNAKTKPREEQYNSTYRVVSVLTVLHQDWLNGKEYKCKVSNKALPSSIEKTISKAKGQPREPQVYTLPPSRDELTKNQVSLTCLVKGFYPSDIAVEWESNGQPENNYKTTPPVLDSDGSFFLYSKLTVDKSRWQQGNVFSCSVMHEALHNHYTQKSLSLSPGK
notes: two identical polypeptides
B15: TACI-2 Fc (Fc fusion)
chain: SGLGRSRKGGKSRVDQEERFPQGLWTGVAMRSCPEEQYWDPLLGTCMSCKTICNHQSQRTCAAFCRSLSCRKEQGKFYDHLLRDCISCASICGQHPKQCAYFCENKLRSPVNLPPELRKQRSGEVENNSDNSGDKTHTCPPCPAPEAEGAPSVFLFPPKPKDTLMISRTPEVTCVVVDVSHEDPEVKFNWYVDGVEVHNAKTKPREEQYNSTYRVVSVLTVLHQDWLNGKEYKCKVSNKALPSSIEKTISKAKGQPREPQVYTLPPSRDELTKNQVSLTCLVKGFYPSDIAVEWESNGQPENNYKTTPPVLDSDGSFFLYSKLTVDKSRWQQGNVFSCSVMHEALHNHYTQKSLSLSPGK
notes: two identical polypeptides
B16: TACI-8 Fc (Fc fusion)
chain: SLSCRKEQGKFYDHLLRDCISCASICGQHPKQCAYFCENKLRSPVNLPPELRKQRSGEVENNSDNSGKYQGLEHRGSEASPALPGLKLSADQVALVYSDKTHTCPPCPAPEAEGAPSVFLFPPKPKDTLMISRTPEVTCVVVDVSHEDPEVKFNWYVDGVEVHNAKTKPREEQYNSTYRVVSVLTVLHQDWLNGKEYKCKVSNKALPSSIEKTISKAKGQPREPQVYTLPPSRDELTKNQVSLTCLVKGFYPSDIAVEWESNGQPENNYKTTPPVLDSDGSFFLYSKLTVDKSRWQQGNVFSCSVMHEALHNHYTQKSLSLSPGK
notes: two identical polypeptides
B17: TACI-7 Fc (Fc fusion)
chain: FPQGLWTGVAMRSCPEEQYWDPLLGTCMSCKTICNHQSQRTCAAFCRSLSCRKEQGKFYDHLLRDCISCASICGQHPKQCAYFCENKLRSPVNLPPDKTHTCPPCPAPEAEGAPSVFLFPPKPKDTLMISRTPEVTCVVVDVSHEDPEVKFNWYVDGVEVHNAKTKPREEQYNSTYRVVSVLTVLHQDWLNGKEYKCKVSNKALPSSIEKTISKAKGQPREPQVYTLPPSRDELTKNQVSLTCLVKGFYPSDIAVEWESNGQPENNYKTTPPVLDSDGSFFLYSKLTVDKSRWQQGNVFSCSVMHEALHNHYTQKSLSLSPGK
notes: two identical polypeptides
B18: TACI-1 Fc (Fc fusion)
chain: SGLGRSRKGGKSRVDQEERFPQGLWTGVAMRSCPEEQYWDPLLGTCMSCKTICNHQSQRTCAAFCRSLSCRKEQGKFYDHLLRDCISCASICGQHPKQCAYFCENKLRSPVNLPPELRKQRSGEVEQNSDNSGKYQGLEHRGSEASPALPGLKLSADQVALVYSDKTHTCPPCPAPEAEGAPSVFLFPPKPKDTLMISRTPEVTCVVVDVSHEDPEVKFNWYVDGVEVHNAKTKPREEQYNSTYRVVSVLTVLHQDWLNGKEYKCKVSNKALPSSIEKTISKAKGQPREPQVYTLPPSRDELTKNQVSLTCLVKGFYPSDIAVEWESNGQPENNYKTTPPVLDSDGSFFLYSKLTVDKSRWQQGNVFSCSVMHEALHNHYTQKSLSLSPGK
notes: two identical polypeptides
B19: TACI-6 Fc (Fc fusion)
chain: GGRSRVDQEERFPQGLWTGVAMRSCPEEQYWDPLLGTCMSCKTICNHQSQRTCAAFCRSLSCRKEQGKFYDHLLRDCISCASICGQHPKQCAYFCENKLRSPVNLPPELRKQRSGEVEDKTHTCPPCPAPEAEGAPSVFLFPPKPKDTLMISRTPEVTCVVVDVSHEDPEVKFNWYVDGVEVHNAKTKPREEQYNSTYRVVSVLTVLHQDWLNGKEYKCKVSNKALPSSIEKTISKAKGQPREPQVYTLPPSRDELTKNQVSLTCLVKGFYPSDIAVEWESNGQPENNYKTTPPVLDSDGSFFLYSKLTVDKSRWQQGNVFSCSVMHEALHNHYTQKSLSLSPGK
notes: two identical polypeptides
B20: TACI-4 Fc (Fc fusion)
chain: GGRSRVDQEERFPQGLWTGVAMRSCPEEQYWDPLLGTCMSCKTICNHQSQRTCAAFCRSLSCRKEQGKFYDHLLRDCISCASICGQHPKQCAYFCENKLRSPVNLPPELRKQRSGEVENNSDNSGKYQGLEHRGSEASPALPGLKLSADQVALVYSDKTHTCPPCPAPEAEGAPSVFLFPPKPKDTLMISRTPEVTCVVVDVSHEDPEVKFNWYVDGVEVHNAKTKPREEQYNSTYRVVSVLTVLHQDWLNGKEYKCKVSNKALPSSIEKTISKAKGQPREPQVYTLPPSRDELTKNQVSLTCLVKGFYPSDIAVEWESNGQPENNYKTTPPVLDSDGSFFLYSKLTVDKSRWQQGNVFSCSVMHEALHNHYTQKSLSLSPGK
notes: two identical polypeptides

For the first assay, the target named is T1, human BAFF (10056-HNCH, Sino biological) (human, UniProt Q9Y275 134-285).
T1 construct: Bought protein
The assay is described as follows: ELISA, BAFF coated, fusion protein titrated. As to the method: The binding activity of the antibodies or fusion proteins for BAFF, APRIL, and IL-12/23 p40 was assayed by the ELISA method (coating an antigen protein). The specific procedures were as follows:
A BAFF (Sino biological, 10056-HNCH), APRIL (R&D Systems, 5860-AP-010/CF), or IL-12/23 p40 (Sino biological, 10052-H08H) protein was diluted to 1 μg/mL with a PBS (BasalMedia, B320) buffer at pH 7.4, and added to a 96-well microplate (Corning, 3590) at 100 μL/well. The plate was incubated at 4° C. overnight. After the liquid was discarded, 300 μL of 5% skim milk (BD, 232100) diluted with PBS was added to each well for blocking, and the plate was incubated at 37° C. for 2 h. After the blocking was completed, the blocking solution was discarded, and the plate was washed 3 times with a PBST buffer (PBS at pH 7.4 containing 0.1% tween-20). 100 μL of test antibody or fusion protein solution diluted in a gradient was added to each well, and the plate was incubated at 37° C. for 1 h. After the incubation was completed, the plate was washed 3 times with PBST. […] The plate was washed 3 times with PBST. 100 μL of TMB chromogenic substrate (KPL, 5120-0077) was added to each well, and the plate was incubated at room temperature for 10-15 min. The reaction was stopped by adding 50 μL of 1 M H₂SO₄ to each well. The plate was read for absorbance values at 450 nm on a microplate reader, the binding curves of the antibodies to an antigen were fitted with software, and the EC₅₀ values were calculated.
For orientation: In an ELISA, binding on a coated surface is turned into a signal by an enzyme label.
The term EC50 denotes the midpoint of the concentration-response curve. Low readings indicate a more potent agent, high ones a less potent agent. B1: the midpoint of the response, the EC50, lay at 382 pM. This counts as sub-nanomolar. As to B2, it took 433 pM to reach a half-maximal effect (EC50). B3 returned an EC50 of 195 pM. On to B4, for which the EC50 amounted to 146 pM. The same measure, in the same setting: then B5, with 470 pM; and B6, with 937 pM. Same read-out and setting: the value for B7 was 278 pM; that for B8 was 727 pM; that for B9 was 122 pM.

Molecule B10 returned an EC50 of 200 pM. B11 registered an EC50 of 367 pM. B12 came in with a half-maximal effective concentration (EC50) of 265 pM. The EC50 values of the last two molecules are within 1.5-fold of each other.

Another assay has as its target T1, human BAFF (10056-HNCH, Sino biological). Briefly: competition ELISA: biotin-labeled BAFF to coated BAFF-R. As to the method: The blocking activity of the antibodies and the fusion proteins for receptors and ligands such as BAFF/BAFF-R, BAFF/BCMA, BAFF/TACI, APRIL/BCMA, APRIL/TACI, and p40/IL-12R1 was assayed by the ELISA method. The specific procedures were as follows:
A receptor protein was diluted to 2 μg/mL with PBS at pH 7.4 (BasalMedia, B320) and added to a 96-well microplate (Corning, 3590) at 100 μL/well. The plate was incubated at 4° C. overnight. After the liquid was discarded, 200 μL of 1% Casein blocking solution (Thermo, 37528) was added to each well for blocking, and the plate was incubated at 37° C. for 2 h. After the blocking was completed, the blocking solution was discarded, and the plate was washed 3 times with a PBST buffer (PBS at pH 7.4 containing 0.1% tween-20) for later use. A biotin-labeled ligand protein at a fixed concentration was mixed with the antibody or fusion protein diluted in gradient, pre-incubated at 37° C. for 30 min, and added to a blocked microplate. The plate was incubated at 37° C. for 1.5 h. After the incubation was completed, the plate was washed 3 times with PBST. 100 μL of streptavidin-HRP (Invitrogen, 434323, diluted at a ratio of 1:4000) was added to each well, and the plate was incubated at 37° C. for 1 h. The supernatant was removed, and the plate was washed 3 times with PBST. 100 μL of TMB chromogenic substrate (KPL, 5120-0077) was added to each well, and the plate was incubated at room temperature for 10-15 min. The reaction was stopped by adding 50 μL of 1 M H₂SO₄ to each well. The plate was read for absorbance values at 450 nm on a microplate reader, the curves for the inhibition of the binding of the ligands to the receptors were fitted with software, and the IC₅₀ values were calculated.
As usually defined, the IC50 is the point on the concentration scale where inhibition reaches its midpoint. On to B13, for which the IC50 amounted to 826000 pM. With B14, the IC50 was 25400 pM. The same measure, in the same setting: the value for B15 was 42800 pM. Turning to B16, the IC50 was 22500 pM.

Take B17: the IC50 turned out to be 27900 pM. Consider B18, for which the 50% inhibitory concentration (IC50) was 44700 pM. Take B19: the IC50 turned out to be 18500 pM. With B20, the IC50 is 33500 pM.
